Experimental data reported in the supplement of paper PMC10567573.

B1: ZNF449 (parent)
chain: FQEYDTDCEVFRQRFRQFQYREAA

Variants of: B1
Test: protein stability index of a GFP-peptide fusion (GPS, HEK-293T) (PSI 1-6); higher = more stable
Conditions: c terminus: a fixed tail appended
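Also: lentivirally expressed fusions sorted by FACS into six bins by GFP to DsRed ratio, PSI derived from sequencing read proportions per bin multiplied by bin number.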

Protein stability index, by site and new letter:
Q2: W 2.67, V 1.68, N 2.93, E 2.73, R 2.09, Y 2.5, P 2.72
F11: T 3.15, Y 2.78, S 2.94, E 3.51, K 3.14, G 3.6, H 3.45, I 2.72, C 2.99
F15: A 3.02, D 3.43, S 2.57, K 2.22, W 2.62, Q 3.01, I 2.44, V 2.98
A23: L 2.51, H 2.54, K 3.31, I 1.7, C 2.65
T6: L 1.89, D 2.62, W 2.11, I 2.74, M 2.13, Y 2.81, N 2.67, Q 2.65, G 1.92, S 1.73, F 2.22
Y20: M 3.03, R 2.88, A 3.12, T 3.46, E 3.52, I 3.37, N 3.48
R14: E 2.69, H 2.76, C 2.23, P 1.8, D 2.17, Q 2.32, F 2.01, A 2.83, L 2.37, T 2.75, I 1.9, M 3.51, N 2.62, W 2.36, S 2.29, G 2.67
F1: N 3.23, C 2.6, D 3.01, R 2.43, M 3.03, T 3.22, W 2.82
D7: Y 1.34, I 2.25, N 1.83, F 2.27, K 2.02, A 1.53, H 2.12
R21: F 2.91, V 2.51, I 2.71, A 2.44, S 2.77, Y 2.54, C 2.92, P 2.44, W 1.75, H 2.53
Y4: C 3.01, I 2.42, S 2.27
R12: A 3.29, S 2.53, V 2.21, C 1.71, D 3.31, I 2.14
D5: C 2.09, G 1.78, E 2.45, H 1.76, I 1.42, S 2.28, W 1.29
E22: H 2.36, P 1.72, L 2.22, C 2.39, M 1.83, Y 1.95, D 2.91, Q 2.17
Q19: C 2.02, T 2.3, P 2.16, I 2.53
R16: Y 2.4, L 2.59, V 2.44, I 2.31
A24: M 2.13, Q 3.13, Y 2.33, S 2.55
Q13: R 2.04, N 2.58, A 2.72, V 2.53, P 1.03, M 1.67, W 2.42
E9: T 1.89, Y 1.27, P 2.46, I 2.47, D 2.16, W 2.02, F 1.96, V 1.79
C8: M 2.71, H 3.01
E3: R 2.54, F 2.35, V 2.31, W 2.6, P 1.56, A 2.08, C 1.76
V10: W 2.13, C 2.52, Y 2.62, I 2.5, F 2.86, Q 3.27, K 2.35
F18: S 2.1, M 3.07, G 2.4, Q 3.56, D 1.79, T 3.11
Q17: R 2.31, L 2.75, N 2.44, V 2.3, E 2.85, A 2.67, Y 2.86
